According to the supplement of paper PMC12067230:

B1: T-19-E; numbered along this chain (parent)
chain: EASNCFAIRHFENKFAVETLICFNLFLNSQEKHY

Variants of: B1
Assay: amyloid nucleation score relative to WT ADan (yeast Sup35 reporter selection) (log enrichment difference); higher = more amyloid nucleation
Experimental: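 Deep mutational scan of the ADan peptide fused to the Sup35 nucleation domain (SupN) in S. cerevisiae [psi-pin-], covering all single amino-acid substitutions and stop truncations (truncations = sequence up to the stop). After 24 h Cu2+ induction, cells were selected on -ADE-URA plates for 7 d at 30 °C. The nucleation score is log enrichment (output/input, deep sequencing) minus that of WT ADan, as the error-weighted mean of 3 biological replicates (DiMSum).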

Amyloid nucleation score, by site and new letter:
T19: E -0.714, H -0.0921, P 0.859, S 0.268, A -2.16, K 0.347, V -3.41, R 0.563, Y -0.511, Q 0.45, C -2.47, N 0.196, L -4.84, F -3.39, D -0.804, G 0.166, W -2.17, M -1.99, I -3.44
Q30: Y -0.751, E 0.219, R -0.927, K -1.41, W -0.8, H -0.33, G -0.112, L -0.134, A -0.161, I -0.931, C -0.317, P -0.153, F -0.531, V -0.127, M -0.23, T -0.212, S -0.0951, D 0.207, N -0.383
I21: G -0.00868, A -0.465, F 0.0204, C 0.511, P -3.66, K -0.182, Y 0.68, W 0.109, L -0.0345, M -0.308, D -3.79, V -0.0338, Q 0.332, R -1.05, H 0.679, S 0.32, E -0.48, N 0.877, T 0.7
L25: I -0.254, Q 0.382, R -3.04, D -1.12, A 0.9, T 0.368, F 0.0915, K -2.69, N 0.307, P -1.7, C 0.731, S -2.33, Y 0.539, H -2.4, E -1.98, V -0.125, M 0.178, G -1.88, W -2.87
L27: H 0.303, M 0.15, S 0.669, R -1.01, C 0.66, A -0.084, Y 0.163, W 0.0695, N 0.524, T 0.731, P 0.545, Q 0.391, F -0.518, I 0.00956, G 0.726, E 0.567, V 0.187, D 0.457, K -0.947
K32: E 0.78, V -0.601, D 0.768, W -0.739, A 0.179, G 0.113, T 0.234, L -0.598, F -0.726, P 0.00117, Y -0.0344, Q 0.041, N 0.686, S 0.198, R -0.086, M -0.157, C -0.144, I -1.31, H 0.279
A16: N 0.755, Q 0.708, M -0.212, Y 0.572, W -0.102, F 0.651, T 0.448, P -1.2, H 0.76, L -0.774, I -0.647, R 0.372, V -0.233, S 0.414, K 0.514, G 0.407
E18: M -3.07, Q -0.141, T -1.61, W -4.12, P 0.645, N 0.236, G 0.127, D 0.406, H -0.855, S -0.355, L -2.63, I -3.49, V -2.72, A -0.809, R -0.108, K 0.239, F -2.56, C -1.06, Y -5.47
N28: R -2.75, M -0.403, V -1.04, G 0.0833, P 0.0596, W -1.06, H -1.83, C 0.468, T -0.313, D -0.0589, I -0.963, E -0.442, S -0.365, F -0.101, Q -0.0342, Y -1.12, A 0.139, K -2.63, L -0.936
V17: A 0.689, D -0.492, C 0.711, N -0.235, Y -2.81, G 0.953, T -0.513, K 0.416, L -0.705, I 0.523, P 0.114, S 0.586, Q -1.12, W -0.301, E -1.74, R 0.126, H -1.16, F -0.0103, M -1.07
F26: T -0.0939, A -0.314, V -0.146, Q -0.394, L -0.42, C 0.2, S -0.00989, R -2.51, I -0.509, G 0.778, Y -0.164, D -0.707, W 0.102, M -0.622, K -3.31, E 0.392, N 0.113, H 0.258, P -3.34
E31: W -6.44, G -0.564, H -1.64, P -0.569, K -1.84, T -1.22, Y -2.5, V -1.09, I -2.59, C -2.07, L -3.31, D -0.000529, Q -0.871, S -0.961, R -2.51, F -5.7, A -1.39, M -3.06, N -0.844
C22: E -2.4, G -1.17, H -1.92, V 0.222, F -0.753, N 0.532, A 0.347, W -2.89, L -0.346, Y -2.4, R -3.03, S -1.65, I -0.375, Q 0.969, D -3.23, K -2.31, T -0.69, P -3.23
N24: Q -0.992, D -3.51, E -3.7, Y -3.1, L -3.39, F -3.3, A -1.52, C -4.06, M -3.68, T -2.11, R -4.05, I -3.74, K -3.17, G -0.57, S -0.773, H -3.55, W -4.76, V -2.78, P -0.19
L20: K -4.53, G 0.273, S -3.53, Y -2.66, F -0.103, N -1.24, A -1.66, C -0.49, T -2.92, M 1.01, D -2.35, W -2.59, H -2.5, E -3.91, I -0.22, Q -1.95, P 0.75, R -3.67, V -1.46
H33: L -0.693, V -0.668, I -1.01, M -0.289, N 0.15, P -0.211, Q -0.171, A -0.505, R -0.172, S -0.164, K -0.0712, T -0.406, F -0.205, C -1.33, D 0.264, E 0.174, G -0.479
F23: C 0.666, H 0.305, Y 0.115, P -1.99, V 0.2, R 0.617, M 0.264, Q 0.146, L 0.404, I -0.248, G 0.469, D 0.717, W -0.121, A 0.41, K 0.342, N -0.504, E 0.416
S29: K 0.205, D 0.326, N 0.0767, P -0.168, T 0.043, W -1.86, Q 0.312, F -1.68, Y -1.65, H -0.577, C -0.0428, R -1.08, G -0.16, A -0.27, L -0.878, M -0.489, V -0.294, I -1.29, E 0.219
